Data published in patent US20120058120A1, “Targets for Growth Factor Signalling and Methods of Therapy” (priority 2009, published 2012).

Experiments:
TG2 [1] = target: T1, TG2 (Homo sapiens, UniProt P21980); assay: Reaction of IGF-I with TG2, with or without the Gln-donor substrate glucagon; type: biochemical
T1 sequence (P21980 1-687): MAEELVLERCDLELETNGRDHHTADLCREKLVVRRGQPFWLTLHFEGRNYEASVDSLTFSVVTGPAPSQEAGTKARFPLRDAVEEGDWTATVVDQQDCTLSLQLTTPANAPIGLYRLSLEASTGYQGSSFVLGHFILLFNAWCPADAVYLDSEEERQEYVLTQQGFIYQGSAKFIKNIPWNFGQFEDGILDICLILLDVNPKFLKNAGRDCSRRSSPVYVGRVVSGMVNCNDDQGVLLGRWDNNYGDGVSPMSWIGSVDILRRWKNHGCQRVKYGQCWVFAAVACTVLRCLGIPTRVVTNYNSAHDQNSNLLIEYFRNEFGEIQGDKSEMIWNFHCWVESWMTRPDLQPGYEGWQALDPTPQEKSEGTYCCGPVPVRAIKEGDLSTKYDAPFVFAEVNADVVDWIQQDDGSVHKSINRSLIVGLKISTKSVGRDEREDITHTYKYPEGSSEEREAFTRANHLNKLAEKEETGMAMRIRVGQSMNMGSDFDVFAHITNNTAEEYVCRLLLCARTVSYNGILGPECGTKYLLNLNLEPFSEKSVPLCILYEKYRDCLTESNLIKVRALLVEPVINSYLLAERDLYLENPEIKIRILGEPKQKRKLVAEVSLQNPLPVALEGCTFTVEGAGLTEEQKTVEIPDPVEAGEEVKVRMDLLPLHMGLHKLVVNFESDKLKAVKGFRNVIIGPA
Source text: FIG. 4 Reaction of IGF-I with glucagon catalysed by TG2. Lane 1: IGF-I control; 2: IGF-I+TG2; 3: TG2 control; 4: Gn control; 5: IGF-I+Gn; 6: TG2+Gn; 7: TG2+Gn+IGF-I. (Gn=glucagon)
In order to confirm this finding, we repeated this experiment using TG2 rather than FXIII, and the known TG2 Gln-donor substrate glucagon (Gn) as a probe (FIG. 4). […] The large band >75 kDa in lane 2 is apparently due to the formation of covalent complexes between IGF-I and TG2 itself; polymerization of IGF-I is also evident. Reaction of IGF-I with Gn (lane 7) also produced polymeric species. A band of MW consistent with (IGF-I)1Gn1 is indicated by an arrow.

FXIII = target: T2, FXIII (Homo sapiens, UniProt P00488); assay: IGF-I incubated with FXIII and PEG functionalized with Q- or K-donor TG substrate peptide, IGF-I Western blot; type: biochemical; conditions: after 1 h; Q-donor vs K-donor PEG
T2 sequence (P00488 1-732): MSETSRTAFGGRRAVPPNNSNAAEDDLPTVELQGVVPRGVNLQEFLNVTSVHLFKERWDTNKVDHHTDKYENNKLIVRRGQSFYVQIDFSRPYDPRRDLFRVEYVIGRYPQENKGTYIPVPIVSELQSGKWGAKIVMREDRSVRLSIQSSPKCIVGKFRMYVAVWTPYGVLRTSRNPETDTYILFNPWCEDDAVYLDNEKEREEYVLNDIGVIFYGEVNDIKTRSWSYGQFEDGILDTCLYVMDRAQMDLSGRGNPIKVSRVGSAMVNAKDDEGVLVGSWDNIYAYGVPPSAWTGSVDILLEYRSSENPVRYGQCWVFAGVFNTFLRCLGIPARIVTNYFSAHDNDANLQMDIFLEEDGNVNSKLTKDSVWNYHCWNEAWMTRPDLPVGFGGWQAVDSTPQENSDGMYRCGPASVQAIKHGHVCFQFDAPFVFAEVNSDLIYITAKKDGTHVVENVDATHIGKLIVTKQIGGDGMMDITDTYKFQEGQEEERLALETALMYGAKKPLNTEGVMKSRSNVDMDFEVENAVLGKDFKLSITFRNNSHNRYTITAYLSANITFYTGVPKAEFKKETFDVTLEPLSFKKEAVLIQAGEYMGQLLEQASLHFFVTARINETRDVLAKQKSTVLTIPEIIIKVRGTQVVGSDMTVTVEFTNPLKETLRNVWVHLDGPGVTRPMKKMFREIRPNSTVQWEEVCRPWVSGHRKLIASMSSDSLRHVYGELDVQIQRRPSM
Description: FIG. 1 (a) IGF-I Western blot after reaction for 60 minutes with FXIII and PEG derivatized with a glutamine (left lane) or lysine FXIII substrate (right lane). […] (b) 3D structure of IGF-I, with the putative FXIII site at the D domain shown relative to residues identified as important for receptor binding.
In the present experiments, IGF-I was incubated with FXIII and PEG functionalized with either a glutamine (Q)- or lysine (K)-donor TG substrate peptide.

TG2 [2] = target: T1, TG2; assay: TG2-catalysed crosslinking of IGF-I to recombinant extracellular domain of IGF1R, IGF-I Western blot; type: biochemical; conditions: TG2 0.70 μM, IGF-I 25 μg/mL, IGF1R 25 μg/mL, 1 hour, 1 mM CaCl2, pH 7.5
Description: TG2 (0.70 μM) was reacted with IGF-I (25 μg/mL) and/or recombinant extracellular domain of IGF1R (25 μg/mL; commercially available from R&D Systems) for 1 hour in the presence of 1 mM CaCl2, pH 7.5. At this point, the reaction was stopped by the addition of SDS-PAGE loading buffer. Samples were run through a 4%-12% SDS-PAGE gel, transferred to a PVDF membrane and probed for IGF-I using a goat anti-human IGF-I primary (1:5000 dilution) and HRP-conjugated rabbit anti-goat secondary (1:10,000), and visualised using chemiluminescence.
For it to be able to do this, both IGF-I and the IGF1R would have to be transglutaminase substrates. Because TG2 catalyses the formation of an isopeptide bond which is essentially as stable as a peptide backbone bond, the complex formed will not be broken apart under reducing SDS-PAGE conditions (whereas disulfide and non-covalent interactions will be broken).
So, in this assay we reacted IGF-I and the soluble recombinant extracellular portion of the receptor with TG2, and probed for where IGF-I ended up using a standard Western blot approach. The “smoking gun” for a reaction would be staining for IGF-I appearing at a molecular weight corresponding to […]. […]

[3] = target: insulin-like growth factor I (IGF-I), P05019
Sequence of insulin-like growth factor I (IGF-I), P05019 (P05019 whole entry, looked up): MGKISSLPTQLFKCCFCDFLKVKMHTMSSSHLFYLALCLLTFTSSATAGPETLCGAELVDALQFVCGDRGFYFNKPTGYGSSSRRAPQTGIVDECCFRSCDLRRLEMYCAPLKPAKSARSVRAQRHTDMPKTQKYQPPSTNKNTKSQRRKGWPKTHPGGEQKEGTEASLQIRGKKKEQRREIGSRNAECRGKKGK

For “IGF-I: insulin-like growth factor I, tested as transglutaminase substrate”, the “products of reaction of IGF-I alone with TG2” value (TG2 [1]; lane 2, IGF-I+TG2) was “produced a series of bands corresponding to IGF-I oligomers”, the “products of reaction of IGF-I with glucagon catalysed by TG2” value (TG2 [1]; lane 7, TG2+Gn+IGF-I) was “produced a wide range of molecular weight species” and the “incorporation of IGF-I into TG substrate-functionalized PEG” value (FXIII) was “quantitatively incorporated into the Q-donor, but not the K-donor PEG”. For the same molecule, the “crosslinking of IGF-I to IGF1R by TG2” value (TG2 [2]) was “TG2 recognises sites on both the IGF1R and IGF-I, and is able to bind the two together”.

B1: factor XIII (FXIII) (protein)
chain: SETSRTAFGGRRAVPPNNSNAAEDDLPTVELQGVVPRGVNLQEFLNVTSVHLFKERWDTNKVDHHTDKYENNKLIVRRGQSFYVQIDFSRPYDPRRDLFRVEYVIGRYPQENKGTYIPVPIVSELQSGKWGAKIVMREDRSVRLSIQSSPKCIVGKFRMYVAVWTPYGVLRTSRNPETDTYILFNPWCEDDAVYLDNEKEREEYVLNDIGVIFYGEVNDIKTRSWSYGQFEDGILDTCLYVMDRAQMDLSGRGNPIKVSRVGSAMVNAKDDEGVLVGSWDNIYAYGVPPSAWTGSVDILLEYRSSENPVRYGQCWVFAGVFNTFLRCLGIPARIVTNYFSAHDNDANLQMDIFLEEDGNVNSKLTKDSVWNYHCWNEAWMTRPDLPVGFGGWQAVDSTPQENSDGMYRCGPASVQAIKHGHVCFQFDAPFVFAEVNSDLIYITAKKDGTHVVENVDATHIGKLIVTKQIGGDGMMDITDTYKFQEGQEEERLALETALMYGAKKPLNTEGVMKSRSNVDMDFEVENAVLGKDFKLSITFRNNSHNRYTITAYLSANITFYTGVPKAEFKKETFDVTLEPLSFKKEAVLIQAGEYMGQLLEQASLHFFVTARINETRDVLAKQKSTVLTIPEIIIKVRGTQVVGSDMTVTVEFTNPLKETLRNVWVHLDGPGVTRPMKKMFREIRPNSTVQWEEVCRPWVSGHRKLIASMSSDSLRHVYGELDVQIQRRPSM
For B1, the “Western blot for IGF-I after 1 h reaction with FXIII and PEG carrying a glutamine- or lysine-donor TG substrate peptide” value [3] was “after 1 h IGF-I was quantitatively incorporated into the Q-donor, but not the K-donor PEG”.
